The target in data set [1] is Lsr2BD WT (Mycobacterium tuberculosis H37Rv, UniProt P9WIP7 66-112). Nature of the data set: fluorescence anisotropy; pH 7.5; 4 nM DNA. To be noted: protein: recombinant; tags: 6xHis; label: 5' Alexa Fluor 488; blunt.
The target in data set [2] is Lsr2 (Mycobacterium tuberculosis H37Rv, UniProt P9WIP7 1-112). Nature of the data set: EMSA; 0.95-7.6 uM Lsr2. To be noted: protein: recombinant; (pET15-TEV, Ni-NTA); chain copies: 2; blunt. (A gel shift assay detects complexes by their altered migration in electrophoresis.)

B1: AT-rich 14-mer (dsDNA)
DNA 1: CGCGCATATATGCG
DNA 2: CGCATATATGCGCG
Take B1: the dissociation constant Kd – broadly, the constant that tells how readily two partners part at equilibrium – in data set [1] was 210 ± 60 nM.

B2: leuS site (dsDNA)
DNA 1: AATTCGGCAAAATCGGTAAG
DNA 2: CTTACCGATTTTGCCGAATT
Turning to B2, the binding result in data set [2] is listed as “binds”.

These data come from paper PMC6906086.
